Here are results for four molecules from paper PMC3118927.

Read-outs that look alike come from different tables or passages of the source.

Assay in all cases: EMSA
The target in data set [1] is T1, Exd (Extradenticle);Ubx (Drosophila melanogaster?;Drosophila …, UniProt P40427;P83949 1-376;56-389, |).
In data set [2] the target is T1, Exd (Extradenticle);Ubx. This is another data set of the same source.
Data set [3] deals with T1, Exd (Extradenticle);Ubx. The source holds these as a separate data set.

T1 sequence (P40427 whole entry, chain 1 of 2): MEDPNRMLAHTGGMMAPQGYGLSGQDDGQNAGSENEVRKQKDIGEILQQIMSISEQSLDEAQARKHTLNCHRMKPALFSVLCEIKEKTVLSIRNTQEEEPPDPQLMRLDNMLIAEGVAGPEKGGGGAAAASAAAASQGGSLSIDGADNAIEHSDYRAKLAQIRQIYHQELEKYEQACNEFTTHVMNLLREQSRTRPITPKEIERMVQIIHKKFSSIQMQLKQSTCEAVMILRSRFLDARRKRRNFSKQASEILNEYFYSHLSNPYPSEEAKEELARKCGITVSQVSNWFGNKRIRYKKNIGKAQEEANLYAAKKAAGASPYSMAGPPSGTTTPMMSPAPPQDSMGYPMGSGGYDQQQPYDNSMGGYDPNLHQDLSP
T1 sequence (P83949 56-389, chain 2 of 2): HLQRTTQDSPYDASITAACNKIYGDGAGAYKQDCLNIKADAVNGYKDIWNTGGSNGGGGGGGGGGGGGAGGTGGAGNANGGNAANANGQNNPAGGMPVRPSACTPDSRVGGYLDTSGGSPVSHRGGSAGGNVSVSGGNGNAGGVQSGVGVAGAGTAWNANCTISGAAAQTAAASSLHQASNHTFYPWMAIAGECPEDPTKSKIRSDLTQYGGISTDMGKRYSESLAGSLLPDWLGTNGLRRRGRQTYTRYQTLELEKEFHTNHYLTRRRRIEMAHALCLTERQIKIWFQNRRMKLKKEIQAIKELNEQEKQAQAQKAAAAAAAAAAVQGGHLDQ

B1: PrFHOX (dsDNA)
DNA 1: TGATGGCTTCCCTTATGATTTTTTGAATAATTTCTTTA
DNA 2: TATAAAGAAATTATTCAAAAAATCATAAGGGAAGCCAT
As to B1, the binding result with Exd (Extradenticle);Ubx [1] is on record as “no binding”.

B2: PrFWT (dsDNA)
DNA 1: TGATGGCTTCCCTTATGATTTATTGAATAATTTCTTTA
DNA 2: TATAAAGAAATTATTCAATAAATCATAAGGGAAGCCAT
With B2, the binding result with Exd (Extradenticle);Ubx [2] is on record as “binds”.

B3: PrFEXD (dsDNA)
DNA 1: TGATGGCTTCCCTTATAGTTTATTGAATAATTTCTTTA
DNA 2: TATAAAGAAATTATTCAATAAACTATAAGGGAAGCCAT
Take B3: the binding result with Exd (Extradenticle);Ubx [1] is reported as “no binding”.

B4: fkh[250con] (dsDNA)
DNA 1: GATCTCAATGTCAAGATTTATGGCCAGCTGTGGGACGA
DNA 2: CCTCGTCCCACAGCTGGCCATAAATCTTGACATTGAGA
Regarding B4, in the data set with Exd (Extradenticle);Ubx [3], the binding result is “binds”.
